Patent US20030216321A1 (REGENTS OF THE UNIVERSITY OF MICHIGAN, published 2003)
One block for each binder: values may come before it. Ends that are not written are not given here.

Experiments:
[1] = biological target: T1, recombinant active wild-type PAI-1 (plasminogen activator inhibitor type 1) (human, UniProt P05121 24-402); test: 6.4 µM active PAI-1 with 200 µM peptide; thermodenaturation, mass spectra, SDS-PAGE
T1 construct: Serpin; Bacterially expressed human PAI-1 (Molecular Innovations), active conformation (>95%); also called wtPAI-1; active PAI-1
From the text: The free peptide was then removed by chromatography on Heparin Sepharose.

[2] = biological target: T2, non-covalent PAI-1-anhydrotrypsin complex (human; bovine, UniProt P00760 24-246, anhydrotrypsin (chemically modified active site; the residue is not given)); test: solid phase assay on nVn-coated plates with 1 µM anhydrotrypsin in all wells (FIG. 28)
T2 construct: Formed in the well: 1 µM anhydrotrypsin present during the PAI-1 incubation step; also called PAI-1 in association with anhydrotrypsin
Description: Briefly, Vn at 1 µg/ml in phosphate buffered saline (PBS), was coated overnight onto Immulon 2 (Dynatech) rmicrotiter plates in a volume of 100 μl at 4° C., and all subsequent steps were performed at room temperature. The plates were washed with PBS followed by dH₂O, allowed to air dry for 15 min., and then blocked with 200 μl of 3% bovine serum albumin in PBS for 30 minutes.

PAI-1:uPA complex = biological target: T3, PAI-1:uPA complex (human, UniProt P00749 21-431); test: solid phase assay on nVn-coated plates, anti-PAI-1 detection (FIG. 27)
T3 construct: also called uPA-PAI-1 complex; UPA-PAI-1

PAI-1:tPA complex = biological target: T4, PAI-1:tPA complex (human, UniProt P00750 36-562); test: as above
T4 construct: also called tPA-PAI-1 complex

[3] = biological target: T1, recombinant active wild-type PAI-1 …; test: competitive inhibition of active PAI-1 binding to immobilized nVn by solution-phase Vn, ELISA
Description: IC₅₀ values for the inhibition by solution-phase Vn were calculated using a four parameter logistic fit from the GraFit program (Erithacus Software). […] The latter was calculated based on the fit of binding data in the absence of competitor Vn (FIG. 37) by equation 1.

- binding result [1]: binds
B1: synthetic RCL peptide Ac-Thr-Val-Ala-Ser-Ser-Ser-Thr-Ala (PAI-1 P14 to P7) (peptide)
peptide: Ac-TVASSSTA
notes: also called eight residue synthetic peptide

- binding result [2]: binds
- Kd (PAI-1:uPA complex): > 100 nM
- Kd (PAI-1:tPA complex): > 100 nM
B2: native human vitronectin (ligand, UniProt P04004 20-478, looked up)
chain: DQESCKGRCTEGFNVDKKCQCDELCSYYQSCCTDYTAECKPQVTRGDVFTMPEDEYTVYDDGEEKNNATVHEQVGGPSLTSDLQAQSKGNPEQTPVLKPEEEAPAPEVGASKPEGIDSRPETLHPGRPQPPAEEELCSGKPFDAFTDLKNGSLFAFRGQYCYELDEKAVRPGYPKLIRDVWGIEGPIDAAFTRINCQGKTYLFKGSQYWRFEDGVLDPDYPRNISDGFDGIPDNVDAALALPAHSYSGRERVYFFKGKQYWEYQFQHQPSQEECEGSSLSAVFEHFAMMQRDSWEDIFELLFWGRTSAGTRQPQFISRDWHGVPGQVDAAMAGRIYISGMAPRPSLAKKQRFRHRNRKGYRSQRGHSRGRNQNSRRPSRATWLSLFSSEESNLGANNYDDYRMDWLVPATCEPIQSVFFFSGDKYYRVNLRTRRVDTVDPPYPRSIAQYWLGCPAPGHL
notes: Predominantly monomeric; also called nVn; native Vn

- fold difference of IC50 against solution-phase nVn [3]: ~6 fold
B3: urea denatured human vitronectin (conformationally altered) (ligand, UniProt P04004 20-478, looked up)
chain: B2 chain
notes: also called dVn; uVn
